In paper PMC11933065, “Characterization of FosA13, a novel fosfomycin glutathione transferase identified in a Morganella morganii isolate from poultry” (Frontiers in Cellular and Infection Microbiology, 2025):

Tested on: C[C@@H]1O[C@@H]1P(=O)(O)O
Assay: HPLC, initial rates, Michaelis-Menten fit
Type: biochemical, Morganella morganii
Conditions: 10 mM GSH, 250 µM MnCl2, 100 mM KCl, 100 mM Tris-HCl, 37 °C, fosfomycin 0-800 µM, printed unit µM conflicts with printed kcat/Km (1.50 × 10^4 M^-1 s^-1), which implies mM

**Q.** With “FosA13 (Morganella morganii subsp. morganii KT)” as the substance, how does the kcat read?
**A.** 6.43 ± 0.04 s⁻¹
